Consider 4 molecules from paper PMC12215075, “Cryo-EM structures of the E. coli Ton and Tol motor complexes” (Nature Communications, 2025).

To fix the notation:
B1: E. coli ExbB (natural protein)
chain: MGNNLMQTDLSVWGMYQHADIVVKCVMIGLILASVVTWAIFFSKSVEFFNQKRRLKREQQLLAEARSLNQANDIAADFGSKSLSLHLLNEAQNELELSEGSDDNEGIKERTSFRLERRVAAVGRQMGRGNGYLATIGAISPFVGLFGTVWGIMNSFIGIAQTQTTNLAVVAPGIAEALLATAIGLVAAIPAVVIYNVFARQIGGFKAMLGDVAAQVLLLQSRDLDLEASAAAHPVRVAQKLRAG
notes: ExbB, E. coli; also called EcExbB; ExbBA

Series [1] concerns the molecule itself. In words: cryo-EM structure; TonB-ExbBD complex, co-expressed and co-purified, in amphipol PMAL-C12 (Tris 30 mM pH8.0 NaCl 170 mM EDTA 1 mM); 300 keV; consensus map 2.8 A and two further classes at 3.2 A.
The target of series [2] is B1. The series is described as above. The settings on record: both partners purified.
Series [3] deals with the molecule itself. In words: cryo-EM structure; TEV-digested TolATEVQR complex, co-expressed and co-purified, in LMNG (Hepes/NaOH 30 mM pH7.5 NaCl 150 mM EDTA 1 mM LMNG 0.002%), second SEC peak; 300 keV; two 3D classes (TolATEVQR-I 2.94 A, TolATEVQR-II 3.18 A).

As a reminder, the stoichiometry N is the number of molecules, sites or subunits per partner or assembly. B1: the “stoichiometry N” value in series [1] amounted to 5.

B2: E. coli TonB with C-terminal TEV site and streptag-II (natural protein)
chain: MTLDLPRRFPWPTLLSVCIHGAVVAGLLYTSVHQVIELPAPAQPISVTMVTPADLEPPQAVQPPPEPVVEPEPEPEPIPEPPKEAPVVIEKPKPKPKPKPKPVKKVQEQPKRDVKPVESRPASPFENTAPARLTSSTATAATSKPVTSVASGPRALSRNQPQYPARAQALRIEGQVKVKFDVTPDGRVDNVQILSAKPANMFEREVKNAMRRWRYEPGKPGSGIVVNILFKINGTTEIQ
notes: TonB, E. coli; only the transmembrane helix (residues 10 to 32) was built, the periplasmic domain is not visible; also called EcTonB; TonBF
In the case of B2, the “stoichiometry N” value in series [2] is 1 TonB per five ExbB.

B3: E. coli TolQ (natural protein, UniProt P0ABU9 1-230, looked up)
chain: MTDMNILDLFLKASLLVKLIMLILIGFSIASWAIIIQRTRILNAAAREAEAFEDKFWSGIELSRLYQESQGKRDNLTGSEQIFYSGFKEFVRLHRANSHAPEAVVEGASRAMRISMNRELENLETHIPFLGTVGSISPYIGLFGTVWGIMHAFIALGAVKQATLQMVAPGIAEALIATAIGLFAAIPAVMAYNRLNQRVNKLELNYDNFMEEFTAILHRQAFTVSESNKG
notes: TolQ, E. coli; residues 2-225 built in the structure; also called EcTolQ; TolQA
In the case of B3, the “stoichiometry N” value in series [3] was determined as 5.

B4: E. coli ExbD with C-terminal TEV site and 10his-tag (natural protein)
chain: MAMHLNENLDDNGEMHDINVTPFIDVMLVLLIIFMVAAPLATVDVKVNLPASTSTPQPRPEKPVYLSVKADNSMFIGNDPVTDETMITALNALTEGKKDTTIFFRADKTVDYETLMKVMDTLHQAGYLKIGLVGEETAKAK
notes: ExbD, E. coli; model built from Asp11 through the transmembrane helix (21-42), periplasmic domain not visible; No TEV digestion is described in the purification of TonB-ExbBD, so the tag was probably still on the chain; also called EcExbD; ExbDY
With B4, in series [1], the “stoichiometry N” value is 2.
